This note sets out measurements from IntAct's records for PubMed 15156152.

First the molecules themselves.
B1: Integrin beta-5 (Homo sapiens), P18084 (parent)
chain: MPRAPAPLYACLLGLCALLPRLAGLNICTSGSATSCEECLLIHPKCAWCSKEDFGSPRSITSRCDLRANLVKNGCGGEIESPASSFHVLRSLPLSSKGSGSAGWDVIQMTPQEIAVNLRPGDKTTFQLQVRQVEDYPVDLYYLMDLSLSMKDDLDNIRSLGTKLAEEMRKLTSNFRLGFGSFVDKDISPFSYTAPRYQTNPCIGYKLFPNCVPSFGFRHLLPLTDRVDSFNEEVRKQRVSRNRDAPEGGFDAVLQAAVCKEKIGWRKDALHLLVFTTDDVPHIALDGKLGGLVQPHDGQCHLNEANEYTASNQMDYPSLALLGEKLAENNINLIFAVTKNHYMLYKNFTALIPGTTVEILDGDSKNIIQLIINAYNSIRSKVELSVWDQPEDLNLFFTATCQDGVSYPGQRKCEGLKIGDTASFEVSLEARSCPSRHTEHVFALRPVGFRDSLEVGVTYNCTCGCSVGLEPNSARCNGSGTYVCGLCECSPGYLGTRCECQDGENQSVYQNLCREAEGKPLCSGRGDCSCNQCSCFESEFGKIYGPFCECDNFSCARNKGVLCSGHGECHCGECKCHAGYIGDNCNCSTDISTCRGRDGQICSERGHCLCGQCQCTEPGAFGEMCEKCPTCPDACSTKRDCVECLLLHSGKPDNQTCHSLCRDEVITWVDTIVKDDQEAVLCFYKTAKDCVMMFTYVELPSGKSNLTVLREPECGNTPNAMTILLAVVGSILLVGLALLAIWKLLVTIHDRREFAKFQSERSRARYEMASNPLYRKPISTHTVDFTFNKFNKSYNGTVD

The variants in one experiment derive from B1. Conditions: with myo10_mouse Myo10, F8VQB6.
Chain of myo10_mouse Myo10, F8VQB6 (F8VQB6 whole entry): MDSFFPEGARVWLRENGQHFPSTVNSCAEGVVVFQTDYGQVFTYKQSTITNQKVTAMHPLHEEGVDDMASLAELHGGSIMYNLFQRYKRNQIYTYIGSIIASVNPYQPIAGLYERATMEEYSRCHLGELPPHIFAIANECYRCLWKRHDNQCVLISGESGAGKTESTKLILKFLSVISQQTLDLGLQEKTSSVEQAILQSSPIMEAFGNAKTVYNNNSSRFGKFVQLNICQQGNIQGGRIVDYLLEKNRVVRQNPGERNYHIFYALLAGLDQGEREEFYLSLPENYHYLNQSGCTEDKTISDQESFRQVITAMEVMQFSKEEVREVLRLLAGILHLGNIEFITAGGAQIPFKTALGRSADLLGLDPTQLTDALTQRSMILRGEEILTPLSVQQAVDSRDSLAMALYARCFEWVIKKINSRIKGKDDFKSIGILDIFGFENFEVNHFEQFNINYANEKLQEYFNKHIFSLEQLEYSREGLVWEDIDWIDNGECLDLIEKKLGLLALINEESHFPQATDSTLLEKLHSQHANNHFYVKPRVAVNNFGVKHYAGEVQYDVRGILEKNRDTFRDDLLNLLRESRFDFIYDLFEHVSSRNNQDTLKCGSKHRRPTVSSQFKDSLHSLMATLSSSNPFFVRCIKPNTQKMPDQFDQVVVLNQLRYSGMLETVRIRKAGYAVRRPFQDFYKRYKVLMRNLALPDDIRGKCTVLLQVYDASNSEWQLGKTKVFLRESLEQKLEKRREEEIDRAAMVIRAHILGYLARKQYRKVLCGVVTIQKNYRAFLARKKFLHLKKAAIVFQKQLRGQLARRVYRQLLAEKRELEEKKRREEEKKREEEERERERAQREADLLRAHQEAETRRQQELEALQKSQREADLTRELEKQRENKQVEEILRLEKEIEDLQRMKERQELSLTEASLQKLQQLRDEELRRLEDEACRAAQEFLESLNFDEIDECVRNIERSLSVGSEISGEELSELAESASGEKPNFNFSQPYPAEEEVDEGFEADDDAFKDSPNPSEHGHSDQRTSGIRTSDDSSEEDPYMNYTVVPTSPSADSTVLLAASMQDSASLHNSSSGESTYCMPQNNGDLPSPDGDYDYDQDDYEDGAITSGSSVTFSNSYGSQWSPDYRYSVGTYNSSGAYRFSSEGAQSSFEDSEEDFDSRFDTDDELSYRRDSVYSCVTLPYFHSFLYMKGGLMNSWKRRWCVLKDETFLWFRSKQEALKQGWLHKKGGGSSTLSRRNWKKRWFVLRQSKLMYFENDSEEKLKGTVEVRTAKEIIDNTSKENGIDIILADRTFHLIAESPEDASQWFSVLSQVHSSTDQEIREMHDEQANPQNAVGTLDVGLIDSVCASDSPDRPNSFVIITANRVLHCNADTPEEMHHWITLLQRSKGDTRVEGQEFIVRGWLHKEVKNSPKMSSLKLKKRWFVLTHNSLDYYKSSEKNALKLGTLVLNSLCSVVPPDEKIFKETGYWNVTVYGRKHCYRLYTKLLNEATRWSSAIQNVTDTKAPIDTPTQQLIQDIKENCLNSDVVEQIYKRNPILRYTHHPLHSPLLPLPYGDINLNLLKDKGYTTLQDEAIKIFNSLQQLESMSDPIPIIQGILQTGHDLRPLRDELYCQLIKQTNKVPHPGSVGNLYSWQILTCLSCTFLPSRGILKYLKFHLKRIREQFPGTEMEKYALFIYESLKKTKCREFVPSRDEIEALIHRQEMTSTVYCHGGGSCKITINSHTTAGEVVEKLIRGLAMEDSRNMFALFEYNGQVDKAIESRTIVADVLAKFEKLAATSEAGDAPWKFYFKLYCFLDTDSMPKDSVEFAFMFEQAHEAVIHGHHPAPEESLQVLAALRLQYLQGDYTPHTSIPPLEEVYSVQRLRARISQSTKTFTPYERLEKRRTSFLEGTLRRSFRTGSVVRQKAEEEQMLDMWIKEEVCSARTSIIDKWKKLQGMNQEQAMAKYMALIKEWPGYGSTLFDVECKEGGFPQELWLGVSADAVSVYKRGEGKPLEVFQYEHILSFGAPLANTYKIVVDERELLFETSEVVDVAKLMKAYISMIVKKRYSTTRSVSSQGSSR
For P772A, the “effect of a mutation on the interaction” value is on record as “disrupting interaction”.

Y774A: the “effect of a mutation on the interaction” value was “disrupting interaction”.

With L773A, the “effect of a mutation on the interaction” value was “decreasing interaction”.

In the next experiment the parent is B1. As to conditions: with myo10_bovin MYO10, P79114.
Chain of myo10_bovin MYO10, P79114 (P79114 whole entry): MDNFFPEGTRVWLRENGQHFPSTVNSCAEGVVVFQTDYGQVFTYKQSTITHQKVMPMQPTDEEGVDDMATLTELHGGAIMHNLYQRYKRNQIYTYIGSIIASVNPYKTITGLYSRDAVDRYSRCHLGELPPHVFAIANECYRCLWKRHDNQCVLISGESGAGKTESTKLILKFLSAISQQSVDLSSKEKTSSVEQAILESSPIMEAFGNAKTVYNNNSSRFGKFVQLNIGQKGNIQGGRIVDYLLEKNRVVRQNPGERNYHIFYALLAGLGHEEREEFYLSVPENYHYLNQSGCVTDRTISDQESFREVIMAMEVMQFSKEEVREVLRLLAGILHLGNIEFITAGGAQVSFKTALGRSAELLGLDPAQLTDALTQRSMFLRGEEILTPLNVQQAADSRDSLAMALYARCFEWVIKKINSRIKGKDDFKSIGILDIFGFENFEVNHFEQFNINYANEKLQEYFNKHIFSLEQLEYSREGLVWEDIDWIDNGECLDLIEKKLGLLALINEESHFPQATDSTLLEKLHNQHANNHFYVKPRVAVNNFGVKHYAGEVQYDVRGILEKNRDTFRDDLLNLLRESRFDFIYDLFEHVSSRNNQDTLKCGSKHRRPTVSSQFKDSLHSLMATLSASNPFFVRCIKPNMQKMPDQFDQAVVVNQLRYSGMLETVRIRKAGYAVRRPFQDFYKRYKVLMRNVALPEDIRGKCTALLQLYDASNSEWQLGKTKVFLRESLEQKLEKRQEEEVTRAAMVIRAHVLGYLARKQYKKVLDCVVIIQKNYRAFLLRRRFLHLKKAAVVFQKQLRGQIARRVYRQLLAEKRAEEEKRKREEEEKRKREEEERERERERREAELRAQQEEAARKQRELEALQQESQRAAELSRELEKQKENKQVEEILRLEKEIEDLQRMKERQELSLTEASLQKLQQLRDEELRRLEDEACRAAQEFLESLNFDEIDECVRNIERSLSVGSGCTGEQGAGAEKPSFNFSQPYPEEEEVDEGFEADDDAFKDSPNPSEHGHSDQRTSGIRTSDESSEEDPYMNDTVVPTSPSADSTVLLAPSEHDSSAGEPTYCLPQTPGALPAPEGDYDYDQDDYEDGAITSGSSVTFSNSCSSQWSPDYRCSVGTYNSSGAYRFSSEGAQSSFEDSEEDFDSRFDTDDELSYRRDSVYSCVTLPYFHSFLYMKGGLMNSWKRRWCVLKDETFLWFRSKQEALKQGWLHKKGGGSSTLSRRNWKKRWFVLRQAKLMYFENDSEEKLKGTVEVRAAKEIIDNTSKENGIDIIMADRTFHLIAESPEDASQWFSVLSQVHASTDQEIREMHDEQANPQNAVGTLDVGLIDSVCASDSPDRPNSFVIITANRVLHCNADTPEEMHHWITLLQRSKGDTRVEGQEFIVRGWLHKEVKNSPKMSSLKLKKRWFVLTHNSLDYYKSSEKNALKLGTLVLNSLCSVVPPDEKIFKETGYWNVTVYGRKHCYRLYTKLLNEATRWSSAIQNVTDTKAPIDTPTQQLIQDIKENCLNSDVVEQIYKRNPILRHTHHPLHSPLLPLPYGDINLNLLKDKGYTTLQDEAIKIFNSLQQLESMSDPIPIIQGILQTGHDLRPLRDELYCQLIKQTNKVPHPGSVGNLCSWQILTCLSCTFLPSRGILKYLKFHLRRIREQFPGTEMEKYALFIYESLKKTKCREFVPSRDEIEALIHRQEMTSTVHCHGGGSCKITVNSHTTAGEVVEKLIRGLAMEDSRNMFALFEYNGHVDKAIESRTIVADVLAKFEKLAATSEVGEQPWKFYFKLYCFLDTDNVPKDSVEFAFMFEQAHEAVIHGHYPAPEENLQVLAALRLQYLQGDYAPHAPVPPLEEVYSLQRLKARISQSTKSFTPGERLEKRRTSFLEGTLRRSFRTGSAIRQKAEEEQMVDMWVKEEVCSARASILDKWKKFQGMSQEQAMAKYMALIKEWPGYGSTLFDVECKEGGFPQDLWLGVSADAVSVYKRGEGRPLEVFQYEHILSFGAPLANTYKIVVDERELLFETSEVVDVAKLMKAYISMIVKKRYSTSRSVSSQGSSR
As to P772A, the “effect of a mutation on the interaction” value is on record as “disrupting interaction”.
